Measured values: doi:10.1101/2020.10.14.337444

Tests used:
[1] = molecular target: ENO1 wt (Homo sapiens, UniProt P06733 1-434); test: competition EMSA
[2] = molecular target: ENO1down (Homo sapiens, UniProt P06733 1-434, K343A); test: competition EMSA
Chain of ENO1down (P06733 whole entry K343A): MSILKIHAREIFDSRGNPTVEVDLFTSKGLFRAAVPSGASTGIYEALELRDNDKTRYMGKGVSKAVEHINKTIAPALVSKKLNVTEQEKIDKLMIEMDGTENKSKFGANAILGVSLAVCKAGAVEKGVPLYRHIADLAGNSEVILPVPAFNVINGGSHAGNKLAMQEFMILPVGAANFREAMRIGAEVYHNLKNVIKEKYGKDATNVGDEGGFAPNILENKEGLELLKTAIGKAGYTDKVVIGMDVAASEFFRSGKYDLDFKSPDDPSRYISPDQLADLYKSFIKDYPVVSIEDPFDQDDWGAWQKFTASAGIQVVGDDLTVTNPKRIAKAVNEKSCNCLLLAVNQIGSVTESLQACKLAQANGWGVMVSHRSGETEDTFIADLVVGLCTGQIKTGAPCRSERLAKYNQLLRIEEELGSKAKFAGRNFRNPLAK

Chain of ENO1 wt (P06733 whole entry): as the sequence (P06733 whole entry K343A) above, with A343K counted along it

Question: What does the source list for CCUCUUUUAUAAAAUAACCCGGUGAAGCAGCCGAG (ssRNA) [PABPC1 target 35-mer]?
Answer: Ki [1]: 27 ± 19 nM; Ki [2]: 224 ± 12 nM

Question: With GGCCCCCAGCCCCGGCACUCGCUCUCCUCCUCUCA (ssRNA) [PABPC1 control 35-mer] as the binder, how does the Ki [1] read?
Answer: The Ki was 2587 ± 9 nM.

Question: And the Ki [2]?
Answer: Its Ki is 3261 ± 12 nM.
